What all share (experiment): cell_activity
Series [1] relates to ZFN 63194 (synthetic). The conditions noted are these: pair with 63195, Hepa1-6, 40 ug/mL.
Series [2] deals with ZFN 66075 (synthetic). Particulars: pair with 64555, 5 ug/mL.
Series [3] concerns ZFN 64552 (synthetic). Particulars: pair with 66083 or 66084, 5 ug/mL.
The test system of series [4] is ZFN 66079 (synthetic). Particulars: pair with 64555, 5 ug/mL.
Series [5] relates to ZFN 63236 (synthetic). Particulars: pair with 63238, Hepa1-6, 40 ug/mL.
For series [6], the system named is ZFN 60287 (synthetic). Particulars: pair with 60289, K562.
Series [7] concerns ZFN 64080 (synthetic). The conditions noted are these: pair with 60501, HepG2, 40 ug/mL.
The test system of series [8] is ZFN 67458 (synthetic). Particulars: pair with 60501, HepG2, 40 ug/mL.
Series [9] relates to ZFN 60502 (synthetic). The conditions noted are these: pair with 64066, HepG2, 40 ug/mL.
The test system of series [10] is ZFN 63342 (synthetic). The conditions noted are these: pair with 63341, Hepa1-6, 40 ug/mL.
In series [11] the test system is ZFN 63238 (synthetic). Particulars: pair with 63236, Hepa1-6, 40 ug/mL.
The test system of series [12] is ZFN 63374 (synthetic). The conditions noted are these: pair with 63375, Hepa1-6, 40 ug/mL.
The subject of series [13] is ZFN 64555 (synthetic). Particulars: pair with 66075, 5 ug/mL.
Series [14] deals with ZFN 63410 (synthetic). Particulars: pair with 63411, Hepa1-6, 40 ug/mL.
In series [15] the test system is ZFN 63375 (synthetic). The conditions noted are these: pair with 63374, Hepa1-6, 40 ug/mL.
For series [16], the system named is ZFN 63411 (synthetic). The conditions noted are these: pair with 63410, Hepa1-6, 40 ug/mL.
In series [17] the test system is ZFN 63341 (synthetic). The conditions noted are these: pair with 63342, Hepa1-6, 40 ug/mL.
In series [18] the test system is ZFN 63195 (synthetic). The conditions noted are these: pair with 63194, Hepa1-6, 40 ug/mL.

Turning to “AAGGACTTGATATGAGAGGGTCCAACTT (double strand) [mouse KLKB1 63194 site]”, the activity in series [1] turned out to be 89.8 % indel.

For the sequence “ACTTGCTGCATATGTGGCTAAAGCAATA (double strand) [M. mulatta HAO1 left]”, the activity stood at 86.9 % indel in series [2], 80.6 % indel in series [3] and 84.2 % indel in series [4].

Sequence “CCGCTGAGTTCACAGGTTGCCCCATGGA (double strand) [mouse KLKB1 63236 site]” gave an activity in series [5] of 92.5 % indel. In series [6], “CGGAGCTCACCCTGGCCGAGTTGAGGCA (double strand) [human PCSK9 60287 site]” displayed an activity of 73.1 % indel. In the case of “CTGCCTTGCTGGACTGGTATTTGTGTCT (double strand) [human TTR 60502 site]”, the activity in series [7] amounted to 47 % indel; in [8] it was 47.6 % indel; in series [9] it was 37.3 % indel. In turn, “CTGCTCCTTGCACGAAGGTCACATTCAG (double strand) [mouse KLKB1 63342 site]” showed an activity in series [10] of 96.8 % indel. Consider “GCAGAGTGCTGGAAAATATCCATGGGGC (double strand) [mouse KLKB1 63238 site]”, for which the activity in [11] stood at 92.5 % indel. For “GGGAGCCATCTGTGGATAACCTTAAGGA (double strand) [mouse KLKB1 63374 site]”, the activity in [12] was 93.7 % indel.

“TCCCAGCTGATAGATGGGTCTATTGCTT (double strand) [M. mulatta HAO1 right]” returned an activity in [13] of 86.9 % indel. In turn, “TCTTTAGGGGAGTGGCCATGGCAGGTCA (double strand) [mouse KLKB1 63410 site]” displayed an activity in series [14] of 84.7 % indel. In series [15], “TGCATGCCATAGGTGATCCTAGTTGGGG (double strand) [mouse KLKB1 63375 site]” displayed an activity of 93.7 % indel. Regarding “TTCACTTGCAGGCTGACCTGCCATGGCC (double strand) [mouse KLKB1 63411 site]”, the activity in series [16] stood at 84.7 % indel. “TTGACTTTGAAGGGGAAGAACTGAATGT (double strand) [mouse KLKB1 63341 site]”: in [17], the activity came to 96.8 % indel.

In series [18], “TTGTCGGTCTTAGAGATATTAAAGTTGG (double strand) [mouse KLKB1 63195 site]” displayed an activity of 89.8 % indel.

For the origin of these results see US20180064827.
